Experimental findings from publication PMC12559223, “Structural basis of apoptosis induction by the mitochondrial voltage-dependent anion channel” (Nature Communications, 2025) are described below.

Residues, ends and D or L forms follow the SMILES beside them.

Usually Kd stands for the equilibrium constant for the complex coming apart.

The target of experiment [1] is T1, BclxLΔLT (Homo sapiens, UniProt Q07817, DEL45-84).
T1 construct: BclxLΔLT (residues 1–44 and 85–213); inferred from Ni-NTA purification; made in house; host or cells: E. coli BL21 (DE3)
T1 sequence (Q07817 with tags, fused parts or gaps DEL45-84 limits assumed): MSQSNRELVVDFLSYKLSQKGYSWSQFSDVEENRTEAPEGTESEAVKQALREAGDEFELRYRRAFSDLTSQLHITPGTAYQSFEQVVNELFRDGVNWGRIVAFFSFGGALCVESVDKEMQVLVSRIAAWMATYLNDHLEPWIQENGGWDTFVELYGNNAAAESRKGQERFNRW
The experiment is described as follows: NMR-detected affinity measurement, alanine scanning of VDAC1-N peptides. It counts as binding. The note with it: NMR CSP titration into 100 µM 2H,15N BclxLΔLT, 20 mM NaPi pH 7.0, 50 mM NaCl; one-site model; mean of individual NMR resonances as probes (n = 3). An excerpt: The resulting chemical shift perturbation was plotted against the peptide concentration to extract KD values for each peptide using a one-site binding model using OriginPro (OriginLab) for data fitting.

For experiment [2], the target named is human BclxLΔTM (soluble domain of BclxL, transmembrane helix deleted) (human) (UniProt Q07817).
Experiment [3] addresses human BclxLΔLT (BclxL without the flexible loop and the transmembrane helix) (human) (UniProt Q07817). The experiment is described as follows: ITC; MicroCal PEAQ-ITC, 20 °C; BclxLΔLT in the cell (250 µM for the linear, 50 µM for the stapled peptide), peptide in the syringe (500 µM stapled); 10 mM NaPi pH 7.0, 50 mM NaCl, 0.5 mM EDTA, 1 mM DTT.
The target in experiment [4] is T2, human BclxLΔLT (BclxL without the flexible loop and the transmembrane helix), Q07817-1.
T2 chain: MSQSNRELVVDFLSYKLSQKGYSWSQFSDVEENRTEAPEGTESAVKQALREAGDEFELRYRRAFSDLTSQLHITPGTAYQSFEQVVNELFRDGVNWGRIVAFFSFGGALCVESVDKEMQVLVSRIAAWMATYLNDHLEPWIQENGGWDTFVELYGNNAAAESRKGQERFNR
The experiment is described as follows: NMR-detected affinity measurements (alanine scanning). The note with it: chain shown with the change;; parent: est. 0.2 mM; read off a plot.

Experiment [5] concerns the target T3, human BclxLΔLT (BclxL without the flexible loop and the transmembrane helix) (human, UniProt Q07817-1 1-212, flexible loop (residues 44–84) deleted).
T3 construct: BclxL, human, residues 1-43 and 85-212 (flexible loop 44-84 and transmembrane helix deleted); the NMR methods say 1-44 and 85-213; Isotope-labelled for NMR; In the crystal it stood fused to VDAC1-N(1-26) on one chain; source: E. coli BL21 (DE3), purified (Ni-NTA, SEC)
The experiment in a line: crystal structure; single-chain BclxLΔLT-VDAC1-N construct, crystal from 1.6 M ammonium sulfate, 0.1 M bicine pH 9.0, 292 K; 1.95 Å. Conditions: both partners purified.

Experiment [6] deals with T4, human BclxLΔTM (soluble domain of BclxL, transmembrane helix deleted) (human, UniProt Q07817-1 1-212).
T4 construct: BclxL, human, soluble domain without the transmembrane helix, residues 1-212 (the NMR methods say 1-213); 2H,15N-labelled where it was the observed species in NMR; source: E. coli BL21 (DE3), purified (Ni-NTA, SEC)
The experiment is described as follows: NMR titration; 100 µM 15N-labelled VDAC1-N peptide with a 5-fold excess of unlabelled BclxLΔTM; 20 mM NaPi pH 7.0, 50 mM NaCl, 303 K, 500 MHz. Conditions: both partners purified.

The target in experiment [7] is human BclxLΔLT (BclxL without the flexible loop and the transmembrane helix) (human, UniProt Q07817-1 1-212, flexible loop (residues 44–84) deleted). The experiment in a line: NMR.
The target in experiment [8] is human BclxLΔLT (BclxL without the flexible loop and the transmembrane helix) (human) (UniProt Q07817). The experiment is described as follows: NMR titration; alanine scan: VDAC1-N peptides titrated into 100 µM 2H,15N-BclxLΔLT; 20 mM NaPi pH 7.0, 50 mM NaCl, 0.5 mM EDTA, 5 mM DTT; KD from chemical shift perturbations, one-site binding model.
For experiment [9], the target named is human BclxLΔTM (soluble domain of BclxL, transmembrane helix deleted) (human) (UniProt Q07817). This is another data set of the same source.

As for `CC(C)C[C@H](NC(=O)[C@H](C)NC(=O)[C@H](C)NC(=O)[C@@H](N)Cc1ccc(O)cc1)C(=O)NCC(=O)N[C@@H](CCCCN)C(=O)N[C@@H](CO)C(=O)N[C@@H](C)C(=O)N[C@@H](CCCNC(=N)N)C(=O)N[C@@H](CC(=O)O)C(=O)N[C@H](C(=O)N[C@@H](Cc1ccccc1)C(=O)N[C@H](C(=O)N[C@@H](CCCCN)C(=O)NCC(=O)O)[C@@H](C)O)C(C)C` [D9A] (H-YAALGKSARDVFTKG-OH), the equilibrium dissociation constant (Kd) in [1] amounted to 1070 µM.

Consider `CC(C)C[C@H](NC(=O)[C@H](CC(=O)O)NC(=O)[C@H](C)NC(=O)[C@@H](N)Cc1ccc(O)cc1)C(=O)NCC(=O)N[C@@H](CCCCN)C(=O)N[C@@H](CO)C(=O)N[C@@H](C)C(=O)N[C@@H](CCCNC(=N)N)C(=O)N[C@@H](C)C(=O)N[C@H](C(=O)N[C@@H](Cc1ccccc1)C(=O)N[C@H](C(=O)N[C@@H](CCCCN)C(=O)NCC(=O)O)[C@@H](C)O)C(C)C` [D16A] (H-YADLGKSARAVFTKG-OH), for which, in [1], the Kd amounted to 1260 µM. For “wild-type VDAC1-N peptide of the alanine scanning set”, the rescue of cBid-activated Bak pore formation inhibited by BclxL (liposome permeabilization), 100 µM peptide in [2] was 80%. As to `CC(C)C[C@H](NC(=O)[C@H](CC(=O)O)NC(=O)[C@H](C)NC(=O)[C@@H](N)Cc1ccc(O)cc1)C(=O)NCC(=O)N[C@@H](CCCCN)C(=O)N[C@@H](CO)C(=O)N[C@@H](C)C(=O)N[C@@H](CCCNC(=N)N)C(=O)N[C@@H](CC(=O)O)C(=O)N[C@@H](C)C(=O)N[C@@H](Cc1ccccc1)C(=O)N[C@H](C(=O)N[C@@H](CCCCN)C(=O)NCC(=O)O)[C@@H](C)O` [V17A] (H-YADLGKSARDAFTKG-OH), binding in experiment [1] was characterised by a dissociation constant (Kd) of 713 µM. Still for that read-out and setting: under `CC(C)C[C@H](NC(=O)[C@H](CC(=O)O)NC(=O)[C@H](C)NC(=O)[C@H](C)N)C(=O)NCC(=O)N[C@@H](CCCCN)C(=O)N[C@@H](CO)C(=O)N[C@@H](C)C(=O)N[C@@H](CCCNC(=N)N)C(=O)N[C@@H](CC(=O)O)C(=O)N[C@H](C(=O)N[C@@H](Cc1ccccc1)C(=O)N[C@H](C(=O)N[C@@H](CCCCN)C(=O)NCC(=O)O)[C@@H](C)O)C(C)C` [Y7A] (H-AADLGKSARDVFTKG-OH) stands 446 µM.

Consider “hydrocarbon-stapled VDAC1 peptide encompassing residues 7–21 (stVDAC1-N) (from UniProt P21796 7-21)”, for which, in experiment [3], the Kd worked out at 2 µM. The molecule `CC(C)C[C@H](NC(=O)[C@H](CC(=O)O)NC(=O)[C@H](C)NC(=O)[C@@H](N)Cc1ccc(O)cc1)C(=O)NCC(=O)N[C@@H](CCCCN)C(=O)N[C@@H](C)C(=O)N[C@@H](C)C(=O)N[C@@H](CCCNC(=N)N)C(=O)N[C@@H](CC(=O)O)C(=O)N[C@H](C(=O)N[C@@H](Cc1ccccc1)C(=O)N[C@H](C(=O)N[C@@H](CCCCN)C(=O)NCC(=O)O)[C@@H](C)O)C(C)C` [S13A] (H-YADLGKAARDVFTKG-OH) showed a Kd in experiment [1] of 408 µM.

For `CC(C)C[C@H](NC(=O)[C@H](CC(=O)O)NC(=O)[C@H](C)NC(=O)[C@@H](N)Cc1ccc(O)cc1)C(=O)NCC(=O)N[C@@H](CCCCN)C(=O)N[C@@H](CO)C(=O)N[C@@H](C)C(=O)N[C@@H](CCCNC(=N)N)C(=O)N[C@@H](CC(=O)O)C(=O)N[C@H](C(=O)N[C@@H](Cc1ccccc1)C(=O)N[C@@H](C)C(=O)N[C@@H](CCCCN)C(=O)NCC(=O)O)C(C)C` [T19A] (H-YADLGKSARDVFAKG-OH), the affinity in experiment [1], expressed as Kd, was 201 µM. Same read-out and setting: under `CC(C)C[C@H](NC(=O)[C@H](CC(=O)O)NC(=O)[C@H](C)NC(=O)[C@@H](N)Cc1ccc(O)cc1)C(=O)NCC(=O)N[C@@H](CCCCN)C(=O)N[C@@H](CO)C(=O)N[C@@H](C)C(=O)N[C@@H](CCCNC(=N)N)C(=O)N[C@@H](CC(=O)O)C(=O)N[C@H](C(=O)N[C@@H](C)C(=O)N[C@H](C(=O)N[C@@H](CCCCN)C(=O)NCC(=O)O)[C@@H](C)O)C(C)C` [F18A] (H-YADLGKSARDVATKG-OH) stands 367 µM; under `CC(C)C[C@H](NC(=O)[C@H](CC(=O)O)NC(=O)[C@H](C)NC(=O)[C@@H](N)Cc1ccc(O)cc1)C(=O)N[C@@H](C)C(=O)N[C@@H](CCCCN)C(=O)N[C@@H](CO)C(=O)N[C@@H](C)C(=O)N[C@@H](CCCNC(=N)N)C(=O)N[C@@H](CC(=O)O)C(=O)N[C@H](C(=O)N[C@@H](Cc1ccccc1)C(=O)N[C@H](C(=O)N[C@@H](CCCCN)C(=O)NCC(=O)O)[C@@H](C)O)C(C)C` [G11A] (H-YADLAKSARDVFTKG-OH), 609 µM.

For `CC(C)[C@H](NC(=O)[C@H](CC(=O)O)NC(=O)[C@H](CCCNC(=N)N)NC(=O)[C@H](C)NC(=O)[C@H](CO)NC(=O)[C@H](CCCCN)NC(=O)CNC(=O)[C@H](C)NC(=O)[C@H](CC(=O)O)NC(=O)[C@H](C)NC(=O)[C@@H](N)Cc1ccc(O)cc1)C(=O)N[C@@H](Cc1ccccc1)C(=O)N[C@H](C(=O)N[C@@H](CCCCN)C(=O)NCC(=O)O)[C@@H](C)O` [L10A] (H-YADAGKSARDVFTKG-OH), in experiment [1], the Kd amounted to 4030 µM. As to `CC(C)C[C@H](NC(=O)[C@H](CC(=O)O)NC(=O)[C@H](C)NC(=O)[C@@H](N)Cc1ccc(O)cc1)C(=O)NCC(=O)N[C@@H](CCCCN)C(=O)N[C@@H](CO)C(=O)N[C@@H](C)C(=O)N[C@@H](CCCNC(=N)N)C(=O)N[C@@H](CC(=O)O)C(=O)N[C@H](C(=O)N[C@@H](Cc1ccccc1)C(=O)N[C@H](C(=O)N[C@@H](CCCCN)C(=O)NCC(=O)O)[C@@H](C)O)C(C)C` [VDAC1 wt], the affinity in [1], expressed as Kd, was 165 µM. As to MAVPPTYADLGKSARDVFAKGYGF [wild-type VDAC1-N peptide of the alanine scanning set T19A], in [4], the dissociation constant Kd is 200 µM. Consider MAVPPTYADLGKSARDVATKGYGF [wild-type VDAC1-N peptide of the alanine scanning set F18A], for which the Kd in experiment [4] was 300 µM.

B1: VDAC1-N peptide (residues 1–26) (peptide, UniProt P21796 1-26, looked up)
peptide: MAVPPTYADLGKSARDVFTKGYGFGL
notes: VDAC1, human, N-terminal residues 1-26; Isotope-labelled (13C and 15N) for NMR; The same stretch 1-26 stands fused to the C-terminus of BclxLΔLT in m8; the row of the crystal structure uses m6 for that stretch; also called VDAC1-N (1–26); 15N-labeled VDAC1-N; source: E. coli, as His6-GB1-TEV fusion, Ni-NTA, TEV digestion, reverse Ni-NTA; not shown: His6, N-terminal, cleaved; GB1, N-terminal, …
In the case of B1, the binding result in experiment [5] and in experiment [6] was “binds” throughout. Take MAVPPTYADLGKSARAVFTKGYGF [wild-type VDAC1-N peptide of the alanine scanning set D16A]: the dissociation constant Kd in experiment [4] was 1200 µM. Still for that read-out and setting: under MAVPPTAADLGKSARDVFTKGYGF [wild-type VDAC1-N peptide of the alanine scanning set Y7A] stands 400 µM; under MAVPPTYADLAKSARDVFTKGYGF [wild-type VDAC1-N peptide of the alanine scanning set G11A], 500 µM.

On to MAVPPTYADAGKSARDVFTKGYGF [VDAC1-N L10A peptide], for which the Kd is around 9000 µM in experiment [7] and 4000 µM in experiment [4]. Also, in [8], the fold reduction in affinity against wild-type VDAC1-N stood at 20 fold. As for MAVPPTYADLGKAARDVFTKGYGF [wild-type VDAC1-N peptide of the alanine scanning set S13A], in experiment [4], the Kd amounted to 400 µM.

Take NLWAAQRYGRELRRMSDEFEGSFKGL [Bad-BH3 peptide (residues 140–165)]: the recovery of cBid-activated Bak pore formation inhibited by BclxL (liposome permeabilization); Bad-BH3 1 to 100 nM in experiment [9] is 50 nM.

Consider MAVPPTYADLGKSARDAFTKGYGF [wild-type VDAC1-N peptide of the alanine scanning set V17A], for which the Kd in experiment [4] turned out to be 600 µM. On the same count and under the same terms, under MAVPPTYAALGKSARDVFTKGYGF [wild-type VDAC1-N peptide of the alanine scanning set D9A] stands 1000 µM.
